T1: recombinant human PD-L2 soluble protein (biotinylated) (human, UniProt Q9BQ51 20-220, limits assumed, biotinylated)
T1 construct: Bought soluble protein
T1 sequence (looked up): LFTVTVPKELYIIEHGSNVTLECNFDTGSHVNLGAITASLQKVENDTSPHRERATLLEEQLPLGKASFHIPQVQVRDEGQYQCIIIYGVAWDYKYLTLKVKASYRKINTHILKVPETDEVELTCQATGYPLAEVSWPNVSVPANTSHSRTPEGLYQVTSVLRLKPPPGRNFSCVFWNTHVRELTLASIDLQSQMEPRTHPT


Tests used:
[1] = target: T2, human PD-L1 on cells (human PD-L1-transfected CHO cells; IFNg-induced HT-1080 tumor cells) (human, UniProt Q9NZQ7 19-290); experiment: inhibition of human PD-1-moFc binding to IFNg-induced PD-L1+CD47+ HT-1080 cells, CellInsight CX5
T2 construct: whole, on cells; CHO transfectants are negative for human CD47; HT-1080 cells also carry CD47; also called hPD-L1-transfected CHO cells; PD-L1+CD47+ HT-1080

[2] = target: T1, recombinant human PD-L2 soluble protein …; experiment: sandwich ELISA: antibody captured on coated anti-Fc, biotinylated recombinant human PD-L2 titrated, streptavidin-HRP/Amplex red fluorescence
[3] = target: T3, recombinant human PD-L1 soluble protein (biotinylated) (human, UniProt Q9NZQ7 19-238, biotinylated); experiment: sandwich ELISA: antibody captured on coated anti-human Fc, biotinylated recombinant human PD-L1 titrated (x axis, nM), streptavidin-HRP/Amplex red fluorescence
T3 construct: Bought soluble protein; also called hPD-L1

[4] = target: T4, recombinant mouse PD-L1 soluble protein (biotinylated) (mouse, UniProt Q9EP73 19-239, limits assumed, biotinylated); experiment: sandwich ELISA: antibody captured on coated anti-human Fc, biotinylated recombinant mouse PD-L1 titrated (x axis, nM), streptavidin-HRP/Amplex red fluorescence
T4 construct: Two sources are named for the two assays

[5] = target: T5, recombinant cynomolgus monkey PD-L1 soluble protein (biotinylated) (cynomolgus monkey, UniProt G7PSE7 19-238, biotinylated (site not stated); vendor tag not carried in the letters); experiment: sandwich ELISA: antibody captured on coated anti-human Fc, biotinylated recombinant cynomolgus PD-L1 titrated (x axis, nM), streptavidin-HRP/Amplex red fluorescence
T5 construct: Two suppliers are named for the two assays; also called Cyno PD-L1; cynomolgus PD-L1; not shown: vendor tag(s) of the recombinant proteins (Sino Biological; Acrobiosystems #PD1-052H4) and the biotin label

[6] = target: T3, recombinant human PD-L1 soluble protein …; experiment: BLI (OctetRED96), biotinylated PD-L1 on streptavidin biosensors, bsAb in solution, 1:1 global fit, 30 °C
[7] = target: T4, recombinant mouse PD-L1 soluble protein …; experiment: sandwich ELISA: antibody captured on coated anti-human Fc, biotinylated recombinant mouse PD-L1 titrated, streptavidin-HRP/Amplex red fluorescence
[8] = target: T6, human CD47 on cells (Raji, Nalm-6, HT-1080 tumor cells, human red blood cells) (human, UniProt Q08722 19-323); experiment: flow cytometry on human red blood cells (CD47+, PD-L1-), detection with AF647 anti-human Fc F(ab')2
T6 construct: whole, on cells; Raji, Nalm-6 and red blood cells carry no or very little PD-L1; HT-1080 carries both targets; also called IAP

[9] = target: T2, human PD-L1 on cells (human …); experiment: inhibition of human PD-1-moFc binding to human PD-L1-transfected CHO cells, CellInsight CX5
[10] = target: T4, recombinant mouse PD-L1 soluble protein …; experiment: BLI (OctetRED96), biotinylated mouse PD-L1 on streptavidin biosensors, bsAb in solution, 1:1 global fit, 30 °C
[11] = target: T5, recombinant cynomolgus monkey PD-L1 …; experiment: BLI (OctetRED96), biotinylated cynomolgus PD-L1 on streptavidin biosensors, bsAb in solution, 1:1 global fit, 30 °C

T2 sequence (Q9NZQ7 19-290): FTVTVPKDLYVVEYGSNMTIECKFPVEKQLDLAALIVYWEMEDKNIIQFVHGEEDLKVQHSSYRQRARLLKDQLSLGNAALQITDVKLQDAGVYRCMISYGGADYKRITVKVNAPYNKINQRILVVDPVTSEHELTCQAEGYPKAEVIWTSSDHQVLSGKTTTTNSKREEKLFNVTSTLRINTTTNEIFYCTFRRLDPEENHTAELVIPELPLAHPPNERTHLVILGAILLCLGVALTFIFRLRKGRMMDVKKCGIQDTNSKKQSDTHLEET
T3 sequence (Q9NZQ7 19-238 limits assumed): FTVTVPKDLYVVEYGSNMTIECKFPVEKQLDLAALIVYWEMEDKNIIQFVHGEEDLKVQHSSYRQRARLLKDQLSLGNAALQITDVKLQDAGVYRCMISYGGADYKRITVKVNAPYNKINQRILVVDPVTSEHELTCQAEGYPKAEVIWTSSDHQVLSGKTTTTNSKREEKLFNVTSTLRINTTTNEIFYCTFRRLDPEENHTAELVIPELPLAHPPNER
T5 sequence (G7PSE7 entry or part of it limits assumed): as the sequence (Q9NZQ7 19-238 limits assumed) above, with A33T, A34S, S62N, R68Q, Q82R, F173L, T185A, T192I, H215L counted along it
T4 sequence (Q9EP73 19-239 limits assumed): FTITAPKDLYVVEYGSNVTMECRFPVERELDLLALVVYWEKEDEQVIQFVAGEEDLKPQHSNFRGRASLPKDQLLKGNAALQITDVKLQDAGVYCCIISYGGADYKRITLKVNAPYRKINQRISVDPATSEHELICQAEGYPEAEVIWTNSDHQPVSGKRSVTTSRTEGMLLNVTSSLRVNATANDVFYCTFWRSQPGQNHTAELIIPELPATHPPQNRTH

| Binder | EC50 (read off the curve) [3] [pM] | EC50 (read off the curve) [4] [pM] | EC50 (read off the curve) [5] [pM] | Kd [6] [pM] | binding result [2] | further results |
| --- | --- | --- | --- | --- | --- | --- |
| K2×S15 CD47×PD-L1 bispecific antibody (bispecific antibody, human IgG1, kappa, lambda, also called K2xS15; K2×S15 bsAb) heavy: not shown light 1: not shown light 2: QSALTQPASVSGSPGQSITISCTGTSSDVVKNNFVSWYQQHPGKAPKLMIYFGSVRPSGVSNRFSGSKSGNTASLTISGLQAEDEADYYCSSWDEPDRPFGGGTKLTVLGQPKAAPSVTLFPPSSEELQANKATLVCLISDFYPGAVTVAWKADSSPVKAGVETTTPSKQSNNKYAASSYLSLTPEQWKSHRSYSCQVTHEGSTVEKTVAPTECS |  |  |  | 3000 |  |  |
| S100 anti-PD-L1 mAb (antibody, human IgG1, lambda, V domains shown, Bivalent monospecific anti-PD-L1 antibody; also called anti-PD-L1 mAb 5100) VH: not shown VL: QSVLTQPPSASGTPGQRVTISCSGSSSNIENKPVNWYQQLPGTAPKLLIYHDTTRPSGVPDRFSGSKSGTSASLAISGLQSEDEADYYCAAWDFATWPATEVFGGGTKLTVLG | ~70 |  | ~30 |  | no binding (tested: about 40 nM PD-L2 protein) | IC50 [1]: 0.84 pM; binding result [7]: no binding (tested: about 33 nM PD-L1 protein) |
| S46 bsAb (bispecific antibody, human IgG1, kappa, lambda, also called K2xS46 CD47xPD-L1 bispecific antibody; K2xS46) common heavy chain: not shown kappa light chain (anti-CD47 K2): not shown lambda light chain (anti-PD-L1 S46): QSALTQPASVSGSPGQSITISCTGTSSDVLRPPLVSWYQQHPGKAPKLMIYFASLRPSGVSNRFSGSKSGNTASLTISGLQAEDEADYYCSSWDNAGDGHVFGGGTKLTVLGQPKAAPSVTLFPPSSEELQANKATLVCLISDFYPGAVTVAWKADSSPVKAGVETTTPSKQSNNKYAASSYLSLTPEQWKSHRSYSCQVTHEGSTVEKTVAPTECS | ~100 | ~70 | ~600 |  |  |  |
| K2×S23 CD47×PD-L1 bispecific antibody (bispecific antibody, human IgG1, kappa, lambda, also called K2xS23; K2×S23 bsAb) heavy: not shown light 1: not shown light 2: QSALTQPASVSGSPGQSITISCTGTSSDVAKIPLVSWYQQHPGKAPKLMIYFASLRPSGVSNRFSGSKSGNTASLTISGLQAEDEADYYCSSWDNAGDGHVFGGGTKLTVLGQPKAAPSVTLFPPSSEELQANKATLVCLISDFYPGAVTVAWKADSSPVKAGVETTTPSKQSNNKYAASSYLSLTPEQWKSHRSYSCQVTHEGSTVEKTVAPTECS | ~100 |  |  | 920 | no binding (tested: about 40 nM PD-L2 protein) | binding result [8]: binds; binding result [4]: binds |
| K2×S94 CD47×PD-L1 bispecific antibody (bispecific antibody, human IgG1, kappa, lambda, also called K2xS94; S94 bsAb) heavy: not shown light 1: not shown light 2: QSVLTQPPSASGTPGQRVTISCISGSVDIAHKPVNWYQQLPGTAPKLLIYHDTSTPDGVPDRFSGSKSGTSASLAISGLQSEDEADYYCAAWDFATWPATEVFGGGTKLTVLGQPKAAPSVTLFPPSSEELQANKATLVCLISDFYPGAVTVAWKADSSPVKAGVETTTPSKQSNNKYAASSYLSLTPEQWKSHRSYSCQVTHEGSTVEKTVAPTECS | ~70 |  | ~30 | 700 |  | IC50 [9]: 50 pM; binding result [7]: no binding (tested: about 33 nM PD-L1 protein) |

Second part, led by results:

| EC50 (read off the curve) [3] [pM] | EC50 (read off the curve) [4] [pM] | EC50 (read off the curve) [5] [pM] | Kd [6] [pM] | Binder | binding result [2] | further results |
| --- | --- | --- | --- | --- | --- | --- |
| ~70 | ~30 | ~30 |  | S79 anti-PD-L1 mAb (antibody, human IgG1, lambda, V domains shown, Bivalent monospecific IgG1 anti-PD-L1 antibody; also called S79_Sc3_1G7_VLCL2 aPDL1 IGLV2-23; anti-PD-L1 mAb S79) VH: not shown VL: QSALTQPASVSGSPGQSITISCTGTSSDVFRPPLVSWYQQHPGKAPKLMIYFASLRPSGVSNRFSGSKSGNTASLTISGLQAEDEADYYCSSWDHTGDGHVFGGGTKLTVLG | no binding (tested: about 40 nM PD-L2 protein) | IC50 [1]: 2.52 pM |
|  |  |  | 830 | K2×S58 CD47×PD-L1 bispecific antibody (bispecific antibody, human IgG1, kappa, lambda, also called K2xS58; K2×S58 bsAb) heavy: not shown light 1: not shown light 2: QSALTQPASVSGSPGQSITISCNSPSSDVVKNNFVSWYQQHPGKAPKLMIYFGSVTGPGVSNRFSGSKSGNTASLTISGLQAEDEADYYCSSWDEPDRPFGGGTKLTVLGQPKAAPSVTLFPPSSEELQANKATLVCLISDFYPGAVTVAWKADSSPVKAGVETTTPSKQSNNKYAASSYLSLTPEQWKSHRSYSCQVTHEGSTVEKTVAPTECS |  |  |
| ~70 | ~30 | ~30 | 500 | K2×S79 CD47×PD-L1 bispecific antibody (bispecific antibody, human IgG1, kappa, lambda, also called K2xS79; S79 bsAb) heavy: not shown light 1: not shown light 2: QSALTQPASVSGSPGQSITISCTGTSSDVFRPPLVSWYQQHPGKAPKLMIYFASLRPSGVSNRFSGSKSGNTASLTISGLQAEDEADYYCSSWDHTGDGHVFGGGTKLTVLGQPKAAPSVTLFPPSSEELQANKATLVCLISDFYPGAVTVAWKADSSPVKAGVETTTPSKQSNNKYAASSYLSLTPEQWKSHRSYSCQVTHEGSTVEKTVAPTECS | no binding (tested: about 40 nM PD-L2 protein) | IC50 [9]: 30 pM; Kd [10]: 520 pM; Kd [11]: 1350 pM |
|  |  |  | 700 | K2×S93 CD47×PD-L1 bispecific antibody (bispecific antibody, human IgG1, kappa, lambda, also called K2xS93; K2×S93 bsAb) heavy: not shown light 1: not shown light 2: QSVLTQPPSASGTPGQRVTISCVSTSDHIAHKPVNWYQQLPGTAPKLLIYHDTSRPDGVPDRFSGSKSGTSASLAISGLQSEDEADYYCAAWDFATWPATEVFGGGTKLTVLGQPKAAPSVTLFPPSSEELQANKATLVCLISDFYPGAVTVAWKADSSPVKAGVETTTPSKQSNNKYAASSYLSLTPEQWKSHRSYSCQVTHEGSTVEKTVAPTECS |  |  |
|  |  |  | 800 | K2×S96 CD47×PD-L1 bispecific antibody (bispecific antibody, human IgG1, kappa, lambda, also called K2xS96; K2×S96 bsAb) heavy: not shown light 1: not shown light 2: QSVLTQPPSASGTPGQRVTISCNLPSADIAHKPVNWYQQLPGTAPKLLIYHDTSVVTGVPDRFSGSKSGTSASLAISGLQSEDEADYYCAAWDFATWPATEVFGGGTKLTVLGQPKAAPSVTLFPPSSEELQANKATLVCLISDFYPGAVTVAWKADSSPVKAGVETTTPSKQSNNKYAASSYLSLTPEQWKSHRSYSCQVTHEGSTVEKTVAPTECS |  |  |

From patent US20220315654A1 (NOVIMMUNE, published 2022)
